{
  "source": "patent US20100086958A1",
  "about": "“NOVEL ENZYME” (priority 2008, published 2010)",
  "molecules": {"B1": {"name": "Bsp383FDH: wild type FDH from Burkholderia sp 383, Seq ID No: 1, C-terminal His-tagged (protein, listed as Burkholderia sp.)", "chain": "MATVLCVLYPDPVDGYPPRYVRDAIPVITHYADGQTAPTPAGPPGFQPGELVGCVSGALGLRGYMEAHGHTLIVTSDKDSPDSEFERRLPEADVVISQPFWPAYLTAERIARAPKLKLALTAGIGSDHVDLDAAARARITVAEVTGSNSISVAEHVVMTTLALVRNYLPSHAIAQQGGWNIADCVSRSYDVEGMHFGTVGAGRIGLAVLRRLKPFGLQLHYTQRHRLDASIEQELGLTYHADAASLASAVDIVNLQIPLYPSTEHLFDAAMIARMKRGAYLINTARAKLVDRDAVVNALTSGHLAGYGGDVWFPQPAPADHPWRTMPFNGMTPHISGTSLSAQARYAAGTLEILQCWFDGKPIRNEYLIVDGGTLAGTGAQSYRLT", "modifications": "C-terminal His tag"}},
  "format_in_all_cases": "biochemical",
  "key": {"[1]": {"test": "Steady state kinetics for NAD^+ (FDH-catalysed formate oxidation)", "conditions": "cofactor NAD^+, 0.18M formate", "description": "(§1) BcenFDH1 (Bsp184FDH) and BspFDH2 (Bsp383FDH) catalyzed oxidation of formate to CO2 was monitored by UV/Vis spectrophotometry in a 96-well plate format. A series of eight solutions of formate (0-200 mM) were prepared by successive dilutions of a stock solution of 0.5 M sodium formate in 0.1 M sodium phosphate buffer, pH 7.0. From this series, 170 μL was transferred into wells of the 96-well plate. 10 μL of the FDHs from a stock solution (64.1 μM for BcenFDH1 (Bsp184FDH) and 78.0 μM for BspFDH2 (Bsp383FDH)) were added into each well and equilibrated for 3 min at 30° C. The reaction was initiated by addition of 20 μL of NAD^+ or NADP^+ solution from a freshly prepared stock (10 mM) using an 8-channel pipette. The plate was then immediately placed into the plate reader. The plate was shaken for 5 s to ensure thorough mixing, and then time-based measurements were recorded every 15 s for 10 min. The rate of formate oxidation was calculated using an extinction coefficient of 3.38 mM^−1 (for 200 μL), which was determined using NADH standards. Km and Vmax values were obtained by non-linear regression to the Michaelis-Menten equation (Eq.1 below) using Origin v7 (Microcal Software Inc.).\n(§2) Similar procedure were used for determination of Michaelis-Menten parameters for NAD^+ and NADP^+. A series of eight solutions of cofactor (0-75 mM) were prepared by successive dilutions of stock solutions. […] of sodium formate solutions (180 mM in well) were transferred into wells of the 96-well plate. 10 μL of the FDHs from a stock solution (64.1 μM for BcenFDH1 (Bsp184FDH) and 78.0 μM for BspFDH2 (Bsp383FDH)) were added into each well and equilibrated for 3 min at 30° C. The reaction was initiated by addition of 20 μL of NAD^+ or NADP^+ solutions using an 8-channel pipette. The plate was then immediately placed into the plate reader. The plate was shaken for 5 s to ensure thorough mixing, and then time-based measurements were recorded every 15 s for 10 min. The rate of formate oxidation was calculated using an extinction coefficient of 3.38 mM^−1 (for 200 μL), which was determined using NADH standards. Km and Vmax values were obtained by non-linear regression to the Michaelis-Menten equation as before."}, "[2]": {"test": "Cytochrome P450 BM3/BspFDH2 coupled oxidation of 1-propylbenzene with NADPH regeneration", "description": "(Li, Q.-S. et al., FEBS Letters 508, 249-252 (2001)) In this oxygen C—H reaction (FIG. 4a), one oxygen atom from an atmospheric O2 molecule is reduced to water by NADPH leaving the other ready for delivery to substrate. All P450's are NADPH-dependent. NADP^+ thus formed is then regenerated to NADPH by the action of BspFDH2 using formate. The overall atomic transformation is therefore the splitting of O2- with a hydride ion from formate using NADP^+ as a hydride shuttle.\n200 μL of 1-propylbenzene (1a above, 1M in DMSO), sodium formate (3 M, 2 mL) and bovine serum albumin (100 mg/mL, 1 mL) were added in potassium phosphate buffer (100 mM, pH 7.6, 2 mL) and the reaction mixture was shaken for 3 min. NADP^+ (10 mM, 1 mL) and BspFDH2 (17 mg/mL, 500 μL) were added and the reaction shaken for 30 minutes at room temperature. After 30 minutes, wild type cytochrome P450-BM3 (WT P450 BM3, 2.4 mg/mL, 300 μL) was added and the reaction shaken at room temperature. The reaction was monitored by GC-MS (Rt˜3.2 minutes). After 15 hr, the reaction mixture was extracted by DCM (3×1 mL) and the combined organic phase was dried and the solvent removed to afford 1-phenylpropan-1-ol (2a above, >99% conversion based on GC chromatogram). […]"}, "[3]": {"test": "Steady state kinetics for formate oxidation", "description": "as §1"}, "[4]": {"test": "Steady state kinetics for NADP^+ (FDH-catalysed formate oxidation)", "description": "as §1, §2"}},
  "data": [
    {"molecule": "B1", "values": [
      {"measurement": "Km", "setting": "[1]", "result": "7.6 ± 2.1", "unit": "mM"},
      {"measurement": "kcat NAD^+", "setting": "[1]", "result": "0.817 ± 0.13", "unit": "s⁻¹"},
      {"measurement": "reaction complete within", "setting": "[2]; coupled with cytochrome P450 BM-3", "result": "≤ 2", "unit": "h"},
      {"measurement": "conversion of propylbenzene to 1-phenyl-1-propanol", "setting": "[2]; coupled with cytochrome P450 BM-3, NADPH regeneration from formate, GC", "result": "> 99", "unit": "%"},
      {"measurement": "kcat", "setting": "[3]; formate oxidation with NADP^+", "result": "6.1148 ± 0.4473", "unit": "s⁻¹"},
      {"measurement": "Km", "setting": "[3]; formate oxidation with NAD^+", "result": "50.1 ± 2.69", "unit": "mM"},
      {"measurement": "kcat", "setting": "[3]; formate oxidation with NAD^+", "result": "0.772 ± 0.0158", "unit": "s⁻¹"},
      {"measurement": "Km", "setting": "[4]; cofactor NADP^+, 0.18M formate", "result": "0.7 ± 0.1", "unit": "mM"},
      {"measurement": "kcat NADP^+", "setting": "[4]; cofactor NADP^+, 0.18M formate", "result": "2.77 ± 0.12", "unit": "s⁻¹"},
      {"measurement": "cofactor preference for NADP^+, times greater than those of known FDHs such as CmetFDH", "setting": "[4]; relative to CmetFDH", "result": "10^6 times"}
    ]}
  ]
}
